Results published in article PMC6862464, “Structural Insights into AQP2 Targeting to Multivesicular Bodies” (International Journal of Molecular Sciences, 2019).
Where a chain is given by its changes, count along the chain named.

T1: human aquaporin 2 (AQP2), wild-type (human, UniProt P41181 1-271, cysteine residues labeled with C5 maleimide Alexa 488; dephosphorylated with alkaline phosphatase before labeling)
T1 construct: concentrations and molar ratios seem to count monomers; His-tag is called uncleavable; also called WT; labeled AQP2; source: Pichia pastoris, purified (HisTrap, SEC) in OGNG; not shown: His-tag, N-terminal, kept
T1 sequence (looked up): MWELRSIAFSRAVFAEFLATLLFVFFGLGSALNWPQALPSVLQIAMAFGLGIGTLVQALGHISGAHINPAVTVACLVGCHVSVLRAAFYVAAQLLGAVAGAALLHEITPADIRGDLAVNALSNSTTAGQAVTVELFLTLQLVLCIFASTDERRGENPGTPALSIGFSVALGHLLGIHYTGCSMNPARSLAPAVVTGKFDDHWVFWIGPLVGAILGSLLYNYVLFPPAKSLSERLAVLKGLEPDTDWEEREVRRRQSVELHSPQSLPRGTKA

B1: full-length human lysosomal trafficking regulator-interacting protein 5 (FL-LIP5) (natural protein)
chain: MAALAPLPPLPAQFKSIQHHLRTAQEHDKRDPVVAYYCRLYAMQTGMKIDSKTPECRKFLSKLMDQLEALKKQLGDNEAITQEIVGCAHLENYALKMFLYADNEDRAGRFHKNMIKSFYTASLLIDVITVFGELTDENVKHRKYARWKATYIHNCLKNGETPQAGPVGIEEDNDIEENEDAGAASLPTQPTQPSSSSTYDPSNMPSGNYTGIQIPPGAHAPANTPAEVPHSTGVASNTIQPTPQTIPAIDPALFNTISQGDVRLTPEDFARAQKYCKYAGSALQYEDVSTAVQNLQKALKLLTTGREDYDIPTT
notes: spacer between the last LIP5 residue and the TEV protease site that precedes the His tag; same tag, TEV site and linker as ND-LIP5; No TEV cleavage is described; also called full-length LIP5; wild-type LIP5; source: E. coli BL21*(DE3), purified (HisTrap, SEC)
B2: N-terminal domain of human LIP5 (ND-LIP5, residues 1-162) (domain or fragment)
chain: MAALAPLPPLPAQFKSIQHHLRTAQEHDKRDPVVAYYCRLYAMQTGMKIDSKTPECRKFLSKLMDQLEALKKQLGDNEAITQEIVGCAHLENYALKMFLYADNEDRAGRFHKNMIKSFYTASLLIDVITVFGELTDENVKHRKYARWKATYIHNCLKNGETPDYDIPTT
notes: LIP5, human, N-terminal domain, residues 1-162; spacer between the last ND-LIP5 residue and the TEV protease site that precedes the His tag; TEV site between spacer and His tag; no cleavage described; source: E. coli BL21*(DE3), purified (HisTrap, SEC)
B3: human AQP2 L230A (natural protein, UniProt P41181 1-271, looked up)
chain: T1 sequence (looked up) with L230A
modifications: cysteine residues labeled with C5 maleimide Alexa 488; dephosphorylated with alkaline phosphatase before labeling
notes: Mutant of m1; source: Pichia pastoris, purified (HisTrap, SEC) in OGNG; not shown: His-tag, N-terminal, kept
B4: human AQP2 L237A (natural protein, UniProt P41181 1-271, looked up)
chain: T1 sequence (looked up) with L237A
modifications: cysteine residues labeled with C5 maleimide Alexa 488; dephosphorylated with alkaline phosphatase before labeling
notes: as for B3
B5: human AQP2 E241A (natural protein, UniProt P41181 1-271, looked up)
chain: T1 sequence (looked up) with E241A
modifications: cysteine residues labeled with C5 maleimide Alexa 488; dephosphorylated with alkaline phosphatase before labeling
notes: as for B3
B6: human AQP2 L234A (natural protein, UniProt P41181 1-271, looked up)
chain: T1 sequence (looked up) with L234A
modifications: cysteine residues labeled with C5 maleimide Alexa 488; dephosphorylated with alkaline phosphatase before labeling
notes: as for B3
B7: human AQP2 R233A (natural protein, UniProt P41181 1-271, looked up)
chain: T1 sequence (looked up) with R233A
modifications: cysteine residues labeled with C5 maleimide Alexa 488; dephosphorylated with alkaline phosphatase before labeling
notes: as for B3
B8: human AQP2 K238A (natural protein, UniProt P41181 1-271, looked up)
chain: T1 sequence (looked up) with K238A
modifications: cysteine residues labeled with C5 maleimide Alexa 488; dephosphorylated with alkaline phosphatase before labeling
notes: as for B3

These binders were tested against T1, human aquaporin 2 (AQP2), wild-type (assay: other fluorescence titration; stoichiometry: labeled AQP2 kept 20 times above the Kd, LIP5 added to a molar LIP5:AQP2 ratio between 0 and 2; saturation point from the intercept of two linear fits; same buffers). Settings: both partners purified.

stoichiometry N	Binder
0.42 molar ratio FL-LIP5:AQP2	B1
0.29 molar ratio ND-LIP5:AQP2	B2

These binders were tested against T1, human aquaporin 2 (AQP2), wild-type (assay: other fluorescence titration; Alexa 488-labeled, dephosphorylated AQP2 (around 1 uM) in the cuvette, titrated with unlabeled LIP5; total fluorescence; 20 mM Tris-HCl pH 8, 300 mM NaCl, 0.2% OGNG; triplicate titrations). Settings: both partners purified.

Kd	Binder
64.4 nM	B2

What follows are binders tested against B1 in the same assay as above. Settings: both partners purified.

Kd	Binder
156 nM	B3
535 nM	B4
700 nM	B5
126 nM	B6
487 nM	B7
552 nM	B8
